Experimental findings from PMC11245854 are described below.

Assay [1] has as its target human C1q, P02745;P02746;P02747. Briefly: HS-AFM. The note with it: CL domain anchored onto a Ni2+-coated mica surface using the C-terminal hexahistidine tag; count in 10 different scanning areas; parent: est. 88; read off a plot.
Assay [2] deals with human C1, P02745;P02746;P02747. The assay can be described thus: HS-AFM. The note with it: CL domain anchored onto a Ni2+-coated mica surface using the C-terminal hexahistidine tag; count in 10 different scanning areas; parent: est. 150; read off a plot.

For “human Cκ domain (from UniProt P01834) K206A”, the values for the response in assay [1] and in assay [2] were 83 molecules and 160 molecules, respectively.

Regarding “human Cκ domain (from UniProt P01834) E194A”, the response in assay [1] was 19 molecules; in assay [2] it was 55 molecules.
